The text below walks through data of PMC8881610.

This experiment has as its target human GLP-1R, wild-type, on cells (human) (UniProt P43220).

Sequence of human GLP-1R, wild-type, on cells (human) (P43220 24-463): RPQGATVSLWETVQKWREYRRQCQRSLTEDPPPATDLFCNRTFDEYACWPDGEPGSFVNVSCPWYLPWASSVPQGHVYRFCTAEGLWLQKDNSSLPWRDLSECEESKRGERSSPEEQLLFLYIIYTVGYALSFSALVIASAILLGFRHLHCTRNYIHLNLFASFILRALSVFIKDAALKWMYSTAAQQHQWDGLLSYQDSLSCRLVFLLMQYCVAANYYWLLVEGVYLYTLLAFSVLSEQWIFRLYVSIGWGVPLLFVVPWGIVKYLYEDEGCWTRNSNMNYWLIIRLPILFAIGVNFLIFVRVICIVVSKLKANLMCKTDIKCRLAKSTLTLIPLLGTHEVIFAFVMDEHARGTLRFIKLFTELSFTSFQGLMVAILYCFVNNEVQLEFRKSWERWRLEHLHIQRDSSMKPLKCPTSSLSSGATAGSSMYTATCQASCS

Substance non-acylated tirzepatide (peptide) yielded a cAMP response, EC50, 0.1% BSA of 4.66 pM and an other of 0.9 pM. With tirzepatide (peptide), the other stood at 3.05 pM.
